# According to US12163955B2, “Antibodies to methotrexate and uses thereof” (Ark Diagnostics, Inc., priority 2023, dated 2024):
# Values joined by “and” are separate entries in the source; they are usually repeats but may differ in a detail not shown here. Equal values may be shown once.
# Assay: Homogeneous enzyme immunoassay calibration curves with antibody clones and DAMP-Y-S-G6PDH conjugate
# Type: biochemical
# Procedure: MTX antibodies and enzyme conjugates may be advantageously used in accordance with the present disclosure in a homogeneous assay format to detect a MTX analyte in samples. Antibodies may be evaluated by known methods, such as, conjugate inhibition, conjugate modulation, calibration, cross-reactivity and spike-recovery. For these purposes, cloned antibodies (28H3-K1, 32H1-K2, 64H1-K1) is added into the antibody diluent to prepare the antibody reagent. The antibody reagent includes antibody as prepared above, buffer, salts, stabilizers, preservatives, NAD^+, and glucose-6-phosphate. Enzyme conjugate DAMP-Y-S-G6PDH is added into the conjugate diluent to prepare the enzyme conjugate reagent. The enzyme conjugate reagent includes the conjugate, buffer, stabilizers, salts, and preservatives.
# A clinical chemistry analyzer useful to evaluate antibodies and enzyme conjugates in a homogeneous enzyme immunoassay format is the Beckman Coulter AU480 (Beckman Coulter, Brea, CA). The Beckman AU480 is an automated biochemistry spectrophotometer analyzer used by medical laboratories to process biological fluid specimens, such as urine, cerebrospinal fluid, oral fluids, plasma and serum. The analyzer is capable of maintaining a constant temperature, pipetting samples, mixing reagents, measuring light absorbance and timing the reaction accurately.
# A homogeneous enzyme immunoassay is conducted using a liquid, ready-to-use, two reagent assay as described above. Typically, 2-15 μL MTX analyte-containing sample is incubated with 75-150 μL antibody reagent followed by the addition of the 50-100 μL enzyme conjugate reagent.
# The assay is a homogeneous enzyme immunoassay technique used for the analysis of MTX in biological fluids. The assay is based on competition between MTX in the specimen and -MTX or MTX analog (DAMP derivatives of the current invention) labeled with the enzyme glucose-6-phosphate dehydrogenase (G6PDH) for antibody binding sites. Enzyme activity decreases upon binding to the antibody, so the drug concentration in the sample can be measured in terms of enzyme activity. Active enzyme converts nicotinamide adenine dinucleotide (NAD^+) to NADH, resulting in an absorbance change that is measured spectrophotometrically at 340 nm. […] The change in the absorbance at 340 nm can be measured spectrophotometrically and is proportional to the enzyme conjugate activity which in turn is related to analyte concentration (see FIG. 14).
# MTX analyte antibodies and enzyme conjugate (DAMP-Y-S-G6PDH) were used in a homogeneous assay format to generate calibration curves using MTX standards as described in Example 12. Antibody reagents were prepared as described in Example 8 through 11 using DAMP-Y-KLH generated rabbit antibodies and cloned antibodies through B-cell. Enzyme conjugate DAMP-Y-S-G6PDH was used to prepare the conjugate reagent. A 6-point calibration curve was generated on the Beckman AU480 clinical chemistry analyzer as described in Examples 12. […]
# [1] = antibody 82.5 μL/g, Cals 0.00 μM
# [2] = antibody 82.5 μL/g, Cals 0.05 μM
# [3] = antibody 82.5 μL/g, Cals 0.15 μM
# [4] = antibody 82.5 μL/g, Cals 0.50 μM
# [5] = antibody 82.5 μL/g, Cals 1.20 μM
# [6] = antibody 90.0 μL/g, Cals 0.00 μM
# [7] = antibody 90.0 μL/g, Cals 0.05 μM
# [8] = antibody 90.0 μL/g, Cals 0.15 μM
# [9] = antibody 90.0 μL/g, Cals 0.50 μM
# [10] = antibody 90.0 μL/g, Cals 1.20 μM
# [11] = antibody 100.0 μL/g, Cals 0.00 μM
# [12] = antibody 100.0 μL/g, Cals 0.05 μM
# [13] = antibody 100.0 μL/g, Cals 0.15 μM
# [14] = antibody 100.0 μL/g, Cals 0.50 μM
# [15] = antibody 100.0 μL/g, Cals 1.20 μM
# [16] = antibody 200.0 μL/g, Cals 0.00 μM
# [17] = antibody 200.0 μL/g, Cals 0.05 μM
# [18] = antibody 200.0 μL/g, Cals 0.15 μM
# [19] = antibody 200.0 μL/g, Cals 0.50 μM
# [20] = antibody 200.0 μL/g, Cals 1.20 μM
molecule,measurement,setting,value
"64H1/64K1: rabbit recombinant monoclonal antibody to MTX, VH SEQ ID NO: 17, VL SEQ ID NO: 21 (antibody) VH: METGLRWLLLVAVLKGVQCQSLEESGGRLVTPGTPMTLTCTASGFSLVKYYMTWVRQAPGKGLEYIGVIWSGGMTYYASWAKGRFTISRTSTTVDLKIISPTTEDTATYFCARERDYFDGYIGNDIWGQGTLVTVSSGQPKAPSVFPLAPCCGDTPSSTVTLGCLVKGYLPEPVTVTWNSGTLTNGVRTFPSVRQSSGLYSLSSVVSVTSSSQPVTCNVAHPATNTKVDKTVAPSTCSKPTCPPPELLGGPSVFIFPPKPKDTLMISRTPEVTCVVVDVSQDDPEVQFTWYINNEQVRTARPPLREQQFNSTIRVVSTLPITHQDWLRGKEFKCKVHNKALPAPIEKTISKARGQPLEPKVYTMGPPREELSSRSVSLTCMINGFYPSDISVEWEKNGKAEDNYKTTPAVLDSDGSYFLYNKLSVPTSEWQRGDVFTCSVMHEALHNHYTQKSISRSPGK VL: MDTRAPTQLLGLLLLWLPGATFAQVLTQTPSSVSAAVGGTVTINCQSSQSVWSRHLSWFQQKPGQPPKLLIYKASTLASGVPSRFSGSGSGTQFTLTISDVQCDDAATYYCLGGYTCIRDDCRAFGGGTEVVVKGDPVAPTVLIFPPAADQVATGTVTIVCVANKYFPDVTVTWEVDGTTQTTGIENSKTPQNSADCTYNLSSTLTLTSTQYNSHKEYTCKVTQGTTSVVQSFNRGDC",Separation,"antibody 82.5 μL/g, 0.00 to 0.05 μM",39.3 ΔmA/min.
same,Separation,"antibody 82.5 μL/g, 0.00 to 1.20 μM",256.1 ΔmA/min.
same,Separation,"antibody 82.5 μL/g, 0.05 to 0.15 μM",76.7 ΔmA/min.
same,Separation,"antibody 82.5 μL/g, 0.25 to 0.50 μM",55.8 ΔmA/min.
same,Separation,"antibody 82.5 μL/g, 0.50 to 1.20 μM",22.6 ΔmA/min.
same,Absorbance,[1],0.3378 and 0.3384
same,Average Rate,[1],338.10 mA/min
same,Absorbance,[2],0.3775 and 0.3772
same,Average Rate,[2],377.35 mA/min
same,Absorbance,[3],0.4548 and 0.4533
same,Average Rate,[3],454.05 mA/min
same,Absorbance,[4],0.5708 and 0.5725
same,Average Rate,[4],571.65 mA/min
same,Absorbance,[5],0.5943 and 0.5941
same,Average Rate,[5],594.20 mA/min
same,Separation,"antibody 90.0 μL/g, 0.00 to 0.05 μM",35.3 ΔmA/min.
same,Separation,"antibody 90.0 μL/g, 0.00 to 1.20 μM",256.5 ΔmA/min.
same,Separation,"antibody 90.0 μL/g, 0.05 to 0.15 μM",69.9 ΔmA/min.
same,Separation,"antibody 90.0 μL/g, 0.25 to 0.50 μM",60.8 ΔmA/min.
same,Separation,"antibody 90.0 μL/g, 0.50 to 1.20 μM",30.8 ΔmA/min.
same,Absorbance,[6],0.3355 and 0.3373
same,Average Rate,[6],336.40 mA/min
same,Absorbance,[7],0.3723 and 0.3711
same,Average Rate,[7],371.70 mA/min
same,Absorbance,[8],0.4421 and 0.4412
same,Average Rate,[8],441.65 mA/min
same,Absorbance,[9],0.5624 and 0.5618
same,Average Rate,[9],562.10 mA/min
same,Absorbance,[10],0.5925 and 0.5933
same,Average Rate,[10],592.90 mA/min
same,Separation,"antibody 100.0 μL/g, 0.00 to 0.05 μM",28.3 ΔmA/min.
same,Separation,"antibody 100.0 μL/g, 0.00 to 1.20 μM",250.1 ΔmA/min.
same,Separation,"antibody 100.0 μL/g, 0.05 to 0.15 μM",63.1 ΔmA/min.
same,Separation,"antibody 100.0 μL/g, 0.25 to 0.50 μM",72.9 ΔmA/min.
same,Separation,"antibody 100.0 μL/g, 0.50 to 1.20 μM",38.7 ΔmA/min.
same,Absorbance,[11],0.3401 and 0.3411
same,Average Rate,[11],340.60 mA/min
same,Absorbance,[12],0.3679 and 0.3698
same,Average Rate,[12],368.85 mA/min
same,Absorbance,[13],0.4318 and 0.4320
same,Average Rate,[13],431.90 mA/min
same,Absorbance,[14],0.5529 and 0.5511
same,Average Rate,[14],552.00 mA/min
same,Absorbance,[15],0.5913 and 0.5901
same,Average Rate,[15],590.70 mA/min
"28H3/28K1: rabbit recombinant monoclonal antibody to MTX, VH SEQ ID NO: 1, VL SEQ ID NO: 5 (antibody) VH: METGPRWLLLVAVLKGVQCQSLEESGGDLVKPGASLALTCKASGLDFSRSDHWICWVRQAPGKGLESIGCIYIGSGTFVRSGTTYYASWAKGRFTISKTSSTTVTLQMTSLTGADTATYFCARGFYATDGYGGPSYLNLWGQGTLVTVSSGQPKAPSVFPLAPCCGDTPSSTVTLGCLVKGYLPEPVTVTWNSGTLTNGVRTFPSVRQSSGLYSLSSVVSVTSSSQPVTCNVAHPATNTKVDKTVAPSTCSKPTCPPPELLGGPSVFIFPPKPKDTLMISRTPEVTCVVVDVSQDDPEVQFTWYINNEQVRTARPPLREQQFNSTIRVVSTLPITHQDWLRGKEFKCKVHNKALPAPIEKTISKARGQPLEPKVYTMGPPREELSSRSVSLTCMINGFYPSDISVEWEKNGKAEDNYKTTPAVLDSDGSYFLYNKLSVPTSEWQRGDVFTCSVMHEALHNHYTQKSISRSPGK VL: MDTRAPTQLLGLLLLWLPGARCADIVMTQTPASVEAAVGGTVTIKCQASESISSYCSWFQQKPGQPPKLLIYRASTLESGVPSRFKGSGSGTQFTLTISDLECADAATYYCQSYAYSSPDSYGSTFGGGTEVVVKGDPVAPTVLIFPPAADQVATGTVTIVCVANKYFPDVTVTWEVDGTTQTTGIENSKTPQNSADCTYNLSSTLTLTSTQYNSHKEYTCKVTQGTTSVVQSFNRGDC",Separation,"antibody 200.0 μL/g, 0.00 to 0.05 μM",43.2 ΔmA/min.
same,Separation,"antibody 200.0 μL/g, 0.00 to 1.20 μM",157.5 ΔmA/min.
same,Separation,"antibody 200.0 μL/g, 0.05 to 0.15 μM",76.3 ΔmA/min.
same,Separation,"antibody 200.0 μL/g, 0.25 to 0.50 μM",0.2 ΔmA/min.
same,Separation,"antibody 200.0 μL/g, 0.50 to 1.20 μM",1.8 ΔmA/min.
same,Absorbance,[16],0.4534 and 0.4555
same,Average Rate,[16],454.45 mA/min
same,Absorbance,[17],0.4989 and 0.4964
same,Average Rate,[17],497.65 mA/min
same,Absorbance,[18],0.5737 and 0.5742
same,Average Rate,[18],573.95 mA/min
same,Absorbance,[19],0.6112 and 0.6092
same,Average Rate,[19],610.20 mA/min
same,Absorbance,[20],0.6095 and 0.6144
same,Average Rate,[20],611.95 mA/min
